Laboratory results published in patent US20230203482A1, “Methods of Rescuing Stop Codons via Genetic Reassignment with ACE-tRNA” (THE WISTAR INSTITUTE OF ANATOMY AND BIOLOGY, priority 2017, published 2023).

test system: NLuc-UGA PTC; assay: NanoLuc nonsense reporter screen (all-in-one HTC plasmid), TGA/UGA PTC, HEK293 cells; format: cell-based, human; settings: HEK cells, luciferase 24 hours post-transfection
Description: Several different nonsense mutations cause CF, thus underlying roughly 10% of all CF disease. FIG. 7. These cases are concentrated into […] specific genetic lesions: E60X, R75X, G542X, R553X, Q890X, Y1092X, R1158X, R1162X and W1282X. A screen was developed to screen existing human tRNA sequences for modification and tolerance to anti-codon editing. To this end, roughly 144 ACE-tRNAs were candidates to test for those that could be used to promote the repair of the disease causative nonsense codon and the expression of the full-length protein. Specifically, using the scheme described in FIG. 11, tRNA libraries were generated to identify novel tRNA sequences that encode for ACE tRNA with the ability to repair the top CF causative nonsense mutations. Specifically, 10 ng of annealed oligos encoding the ACE-tRNAs were combined with 50 ng of NanoLuc reporter plasmid, 1 μl 10×CutSmart Buffer (NEB), 1 μl T4 ligase (NEB), 10 mM ATP and 1 μl BbsI (NEB) and cycled in a thermocycler as described in FIG. 11. 1 μl of the reaction was transformed into competent E. coli and the transformants were plated on ampicillin agar plates. One transformant was picked per plate was picked, grown in 1 ml of LB under ampicillin selection, miniprepped and sequence verified.
Screening studies were first performed to identify the best ACE-tRNA Candidates from tryptophan and glycine. 125 ng of sequence verified miniprep cDNA of NanoLuc reporter plasmid with ACE-tRNA was transfected into HEK cells using calcium phosphate. HEK cells were plated in 96 well plates at 4×10^4 the day prior. 24 hours after transfection the media was replaced with 20 μl of PBS and 15 μl of NanoGlo reagent (Promega) was added. Plates were read on a SpectraMax i3 (Molecular Devices). Data are of replicates of 3 or greater. FIG. 8.
FIG. 10. An additional modification of the tRNA was made to further enable their function for the purpose of suppression of nonsense codons and the promotion of protein expression. […] To this end, single and double mutations were directly engineered into the t-stem loop of tRNA Trpchr17.trna39—an ACE-tRNA identified with activity for the rescue of tryptophan TGA nonsense codons. Thirty-eight tRNA t-stem variants were thus generated and screened in HEK cells transiently transfected with the nonsense rescue reporter construct shown in FIG. 4. […] This is a generalizable modification, that is, new tRNA sequences identified, by example 1 and 2, can be made better (for their ability to rescue nonsense codons) through further rationale modifications. Such approaches aid in the therapeutic utility of ACE-tRNA directed to tissue types with low abundance target RNA or where tRNA delivery may be limiting.
In order to enable the identification of the nucleotide composition and functional ability to suppress nonsense codons by new types of tRNA, an All-In-One Plasmid With A One Pot Cloning Reaction was invented for High Throughput Cloning FIG. 11. This approach enables the facile investigation of ACE-tRNA activity via luciferase activity in a standard 96 well format. Briefly, synthetic nucleotide sequences encoding for tRNA are ligated into the NanoLuc Reporter plasmid, with an example of the TGA nonsense reporter plasmid variant shown in FIG. 11. […] and TAG (amber) stop codon rescue vectors have been successfully designed and implemented in FIGS. 16-19. The benefits are the approach is that DNA oligos encoding for tRNA libraries can be ligated in the NanoLuc reporter plasmid with the presence of the restriction enzyme and ligase with the reaction pushed to nearly 100% incorporation of tRNA insert (FIG. 11)-thus the ‘one-pot’ designation. The reaction is transformed into E. coli, with the resultant cDNA purified by standard methods. […]

Molecule	enhancement of the suppression ability of Trpchr17.trna39 by t-stem mutation
TS-38: t-stem variant of Trpchr17.trna39, SEQ ID NO: 3 (nucleic acid, expressed or natural sequence) GGCCTCGTGGCGCAACGGTAGCGCGTCTGACTTCAGATCAGAAGGTTCCGGGTTCAAATCCCGGCGGGGTCA	roughly 250%

same assay, conditions: Table 1, Arg TGA

Molecule	Ranking
ArgTGAchr7.trna5: ACE-tRNA Arg, TGA suppressor, SEQ ID NO: 7	#4
ArgTGAchr9.trna6/nointron: ACE-tRNA Arg, TGA suppressor, SEQ ID NO: 4	#1
ArgTGAchr17.trna19: ACE-tRNA Arg, TGA suppressor, SEQ ID NO: 5	#2
ArgTGAchr9.trna6/withintron: ACE-tRNA Arg, TGA suppressor, SEQ ID NO: 9 (nucleic acid, expressed or natural sequence) CGTCGGCTCTGTGGCGCAATGGATAGCGCATTGGACTTCAAGCTGAGCCTAGTGTGGTCATTCAAAGGTTGTGGGTTCGAGTCCCACCAGAGTCG	#5
ArgTGAchr17.trna3/withinron: ACE-tRNA Arg, TGA suppressor, SEQ ID NO: 12 (nucleic acid, expressed or natural sequence) CGTCGGCTCTGTGGCGCAATGGATAGCGCATTGGACTTCAAGTGACGAATAGAGCAATTCAAAGGTTGTGGGTTCGAATCCCACCAGAGTCG	#7
ArgTGAchr1.trna10/withintron: ACE-tRNA Arg, TGA suppressor, SEQ ID NO: 11 (nucleic acid, expressed or natural sequence) CGTCGGCTCCGTGGCGCAATGGATAGCGCATTGGACTTCAAGAGGCTGAAGGCATTCAAAGGTTCCGGGTTCGAGTCCCGGCGGAGTCG	#6
ArgTGAchr1.trna10/nointron: ACE-tRNA Arg, TGA suppressor, SEQ ID NO: 6 (nucleic acid, expressed or natural sequence) CGTCGGCTCCGTGGCGCAATGGATAGCGCATTGGACTTCAAATTCAAAGGTTCCGGGTTCGAGTCCCGGCGGAGTCG	#3
ArgTGAchr17.trna3/nointron: ACE-tRNA Arg, TGA suppressor, SEQ ID NO: 8 (nucleic acid, expressed or natural sequence) CGTCGGCTCTGTGGCGCAATGGATAGCGCATTGGACTTCAAATTCAAAGGTTGTGGGTTCGAATCCCACCAGAGTCG	#4
ArgTGAchr16.trna3: ACE-tRNA Arg, TGA suppressor, SEQ ID NO: 10 (nucleic acid, expressed or natural sequence) CGTCGCCCCGGTGGCCTAATGGATAAGGCATTGGCCTTCAAAGCCAGGGATTGTGGGTTCGAGTCCCACCCGGGGTA	#5

same assay, conditions: Table 7, Trp TGA

Molecule	Ranking
TrpTGAchr6.trna171: ACE-tRNA Trp, TGA suppressor, SEQ ID NO: 50	#3
TrpTGAchr17.trna10: ACE-tRNA Trp, TGA suppressor, SEQ ID NO: 49 (nucleic acid, expressed or natural sequence) GACCTCGTGGCGCAATGGTAGCGCGTCTGACTTCAGATCAGAAGGTTGCGTGTTCAAGTCACGTCGGGGTCA	#2

same assay, conditions: Table 8, Gly TGA

Molecule	Ranking
GlyTGAchr17.trna9: ACE-tRNA Gly, TGA suppressor, SEQ ID NO: 55 (nucleic acid, expressed or natural sequence) GCGTTGGTGGTATAGTGGTAAGCATAGCTGCCTTCAAAGCAGTTGACCCGGGTTCGATTCCCGGCCAACGCA	#3
GlyTGAchr1.trna107: ACE-tRNA Gly, TGA suppressor, SEQ ID NO: 54 (nucleic acid, expressed or natural sequence) GCGTTGGTGGTATAGTGGTGAGCATAGCTGCCTTCAAAGCAGTTGACCCGGGTTCGATTCCCGGCCAACGCA	#2

test system: NLuc-UAG PTC; assay: NanoLuc nonsense reporter screen (all-in-one HTC plasmid), TAG/UAG PTC, HEK293 cells; format: cell-based, human; settings: Table 2, Gln TAG
Description: In order to enable the identification of the nucleotide composition and functional ability to suppress nonsense codons by new types of tRNA, an All-In-One Plasmid With A One Pot Cloning Reaction was invented for High Throughput Cloning FIG. 11. This approach enables the facile investigation of ACE-tRNA activity via luciferase activity in a standard 96 well format. Briefly, synthetic nucleotide sequences encoding for tRNA are ligated into the NanoLuc Reporter plasmid, with an example of the TGA nonsense reporter plasmid variant shown in FIG. 11. […] and TAG (amber) stop codon rescue vectors have been successfully designed and implemented in FIGS. 16-19. The benefits are the approach is that DNA oligos encoding for tRNA libraries can be ligated in the NanoLuc reporter plasmid with the presence of the restriction enzyme and ligase with the reaction pushed to nearly 100% incorporation of tRNA insert (FIG. 11)-thus the ‘one-pot’ designation. The reaction is transformed into E. coli, with the resultant cDNA purified by standard methods. Another benefit of the invented method is that the tRNA and reporter gen are within the single expression cassette, therefore lowering biological variability and improving data quality obtaining in resulting screens of tRNA suppression activity. The purified cDNA plasmids are then screened in high-throughput 96 well format for their ability to repair nonsense codons by inferred luciferase activity. The approach is suitable for the high-throughput screening of hundreds to thousands of tRNA for novel therapeutic activity.
The rationale of this study is rooted in the observation that there are multiple tRNA genes with unique sequences (isodecoders) for a given cognate amino acid (isoacceptors), leading to >400 tRNAs annotated in the human genome (http:lowelab.ucsc.edu/GtRNAdb/)^28, 29. First, tRNA genes were examined to identify individual ACE-tRNAs that retain suppression efficacy of PTCs in mammalian cells. In order to maximize sequence coverage, an all-in-one cDNA plasmid was generated that supports both high-throughput cloning (HTC) of ACE-tRNAs and quantitative measurement of PTC suppression using luminescence following delivery to mammalian cells, FIG. 21B. ACE-tRNA sequences were cloned as DNA oligos into the HTC plasmid using Golden Gate cloning^30 paired with ccdB negative selection^31. This strategy produced ˜100% cloning efficiency. ACE-tRNA suppression efficiency was read out from a split NanoLuc luciferase (NLuc) NanoBiT platform whereby the PTC of interest (UGA, UAA, or UAG) was introduced in-frame at the junction between the large bit and small bit domains, FIG. 21B^32, using a 96-well format and normalized to background obtained in NLuc-PTC expressing cells. Twenty-one glycine ACE-tRNAs were first evaluated for suppression of the UGA PTC, FIG. 22, top left, column 1 (violet). […] Given the high sequence conservation among the Gly-tRNAs screened for anti-codon tolerance (FIG. 27), it would be difficult to predict de novo which tRNA would be most amenable to anticodon-editing.
The parent plasmid used was pcDNA3.1(+). The cDNA encoding pNLuc was Gibson Assembled (New England Biolabs, USA) into restriction sites HindIII and XhoI. A glycine (codon gga), tryptophan ([…]), amber (tag), opal (tga) and ochre (taa), were added to amino acid position 160 during cDNA per. The pcDNA3.1(+) polyA sequence was replaced for one with no BbsI restriction sites using per based Gibson Assembly. The high throughput ACE-tRNA Golden Gate cloning site was generated by first inserting the 5′ leader sequence of the human tRNA^Tyr gene (bold) with a T7 promoter sequence upstream (italics)
tRNA gene sequences were obtained from the tRNA database tRNAscan-SE (http://gtrnadb.ucsc.edu/index.html; PMID: 26673694). […]

Molecule	Ranking
GlnTAGchr6.trna63: ACE-tRNA Gln, TAG suppressor, SEQ ID NO: 18 (nucleic acid, expressed or natural sequence) CGTCGGTCCCATGGTGTAATGGTTAGCACTCTGGACTCTAAATCCAGCAATCCGAGTTCGAATCTCGGTGGGACCT	#3
GlnTAGchr1.trna17: ACE-tRNA Gln, TAG suppressor, SEQ ID NO: 16 (nucleic acid, expressed or natural sequence) CGTCGGTTCCATGGTGTAATGGTGAGCACTCTGGACTCTAAATCCAGCGATCCGAGTTCGAGTCTCGGTGGAACCT	#1
GlnTAGchr17.trna14: ACE-tRNA Gln, TAG suppressor, SEQ ID NO: 19 (nucleic acid, expressed or natural sequence) CGTCGGTCCCATGGTGTAATGGTTAGCACTCTGGACTCTAAATCCAGCGATCCGAGTTCAAATCTCGGTGGGACCT	#4
GlnTAGchr6.trna175: ACE-tRNA Gln, TAG suppressor, SEQ ID NO: 17 (nucleic acid, expressed or natural sequence) CGTCGGCCCCATGGTGTAATGGTTAGCACTCTGGACTCTAAATCCAGCGATCCGAGTTCAAATCTCGGTGGGACCT	#2
GlnTAGchr6.trna132: ACE-tRNA Gln, TAG suppressor, SEQ ID NO: 20 (nucleic acid, expressed or natural sequence) CGTCGGCCCCATGGTGTAATGGTCAGCACTCTGGACTCTAAATCCAGCGATCCGAGTTCAAATCTCGGTGGGACCC	#5

same assay, conditions: Table 4, Trp TAG

Molecule	Ranking
TrpTAGchr6.trna171: ACE-tRNA Trp, TAG suppressor, SEQ ID NO: 34	#2
TrpTAGchr17.trna39: ACE-tRNA Trp, TAG suppressor, SEQ ID NO: 35	#3
TrpTAGchr12.trna6: ACE-tRNA Trp, TAG suppressor, SEQ ID NO: 36 (nucleic acid, expressed or natural sequence) CGTCGACCTCGTGGCGCAACGGTAGCGCGTCTGACTCTAGATCAGAAGGCTGCGTGTTCGAATCACGTCGGGGTCA	#4
